From PMC7582152 (2020) come the findings set out here.

The chains are these.
B1: wild-type canine cardiac calsequestrin (Casq2) [canine] / ER luminal domain of IRE1α (IRE1-NLD) [modified: covalently labeled with a red fluorescent tag (Monolith NT Protein Labeling Kit RED-NHS); covalently labeled with a red fluorescent … (parent complex)
chain 1: EEGLNFPTYDGKDRVVSLTEKNFKQVLKKYDVLCLYYHESVSSDKVAQKQFQLKEIVLELVAQVLEHKDIGFVMVDAKKEAKLAKKLGFDEEGSLYVLKGDRTIEFDGEFAADVLVEFLLDLIEDPVEIINSKLEVQAFERIEDQIKLIGFFKSEESEYYKAFEEAAEHFQPYIKFFATFDKGVAKKLSLKMNEVDFYEPFMDEPIAIPDKPYTEEELVEFVKEHQRPTLRRLRPEDMFETWEDDLNGIHIVAFAERSDPDGYEFLEILKQVARDNTDNPDLSIVWIDPDDFPLLVAYWEKTFKIDLFKPQIGVVNVTDADSVWMEIPDDDDLPTAEELEDWIEDVLSGKINTEDDDNEEGDDGDDDEDDDDDDGNNSDEESNDDSDDDDE
chain 2: IFGSTSTVTLPETLLFVSTLDGSLHAVSKRTGSIKWTLKEDPVLQVPTHVEEPAFLPDPNDGSLYTLGSKNNEGLTKLPFTIPELVQASPCRSSDGILYMGKKQDIWYVIDLLTGEKQQTLSSAFADSLCPSTSLLYLGRTEYTITMYDTKTRELRWNATYFDYAASLPEDDVDYKMSHFVSNGDGLVVTVDSESGDVLWIQNYASPVVAFYVWQREGLRKVMHINVAVETLRYLTFMSGEVGRITKWKYPFPKETEAKSKLTPTLYVGKYSTSLYASPSMVHEGVAVVPRGSTLPLLEGPQTDGVTIGDKGECVITPSTDVKFDPGLKSKNKLNYLRNYWLLIGHHETPLSASTKMLERFPNNLPKHRENVIPADSEKKSFEEVINLVDQTSENAPTTVSRDVEEKPAHAPARPEAPVDSMLKD

The assay covers variants of B1. The assay can be described thus: microscale thermophoresis (MST); IRE1-NLD covalently labeled with a red fluorescent tag; increasing amounts of Casq2 or Casq2 mutant; three independent measurements; parent: 4.3e+03 nM; read off a plot. (In general: MST reads how a fluorescent partner responds to local heating, with and without ligand.)
With chain 1 EEGLNFPTYDGKDRVVSLTEKNFKQVLKKYDVLCLYYHESVSSDKVAQKQFQLKEIVLELVAQVLEHKDIGFVMVDAKKEAKLAKKLGFDEEGSLYVLKGDRTIEFDGEFAADVLVEFLLDLIEDPVEIINSKLEVQAFERIEDQIKLIGFFKSEESEYYKAFEEAAEHFQPYIKFFATFDKGVAKKLSLKMNEVDFYEPFMDEPIAIPDKPYTEEELVEFVKEHQRPTLRRLRPEDMFETWEDDLNGIHIVAFAERSDPDGYEFLEILKQVARDNTDNPDLSIVWIDPDDFPLLVAYWEKTFKIDLFKPQIGVVNVTDADSVWMEIPDDDGLPTAEELEDWIEDVLSGKINTEDDDNEEGDDGDDDEDDDDDDGNNSDEESNDDSDDDDE [chain 1 D332G], the Kd – broadly, the equilibrium constant for the complex coming apart – is around 4.8 µM.

On to chain 1 EEGLNFPTYDGKDRVVSLTEKNFKQVLKKYDVLCLYYHESVSSDKVAQKQFQLKEIVLELVAQVLEHKDIGFVMVDAKKEAKLAKKLGFDEEGSLYVLKGDRTIEFDGEFAADVLVEFLLDLIEDPVEIINSKLEVQAFERIEDQIKLIGFFKSEESEYYKAFEEAAEHFQPYIKFFATFDKGVAKKLSLKMNEVDFYEPFMDEPIAIPDKPYTEEELVEFVKEHQRPTLRRLRPEDMFETWEDDLNGIHIVAFAERSDPDGYEFLEILKQVARDNTDNPDLSIVWIDPDDFPLLVAYWEKTFKIDLFKSQIGVVNVTDADSVWMEIPDDDDLPTAEELEDWIEDVLSGKINTEDDDNEEGDDGDDDEDDDDDDGNNSDEESNDDSDDDDE [chain 1 P310S], for which the Kd was around 3.2 µM.

Turning to chain 1 EEGLNFPTYDGKDRVVSLTEKNFKQVLKKYDVLCLYYHESVSSDKVAQKQFQLKEIVLELVAQVLEHKDIGFVMVDAKKEAKLAKKLGFDEEGSLYVLKGDRTIEFDGEFAADVLVEFLLDLIEDPVEIINSKLEVQAFERIEDQIKLIGFFKSEESEYYKAFEEAAEHFQPYIKFFATFDKGVAKKLSLKMNEVDFYEPFMDEPIAIPDKPYTEEELVEFVKEHQRPTLRRLRPEDMFETWEDDLNGIHIVAFAERSDPDGYEFLEILKQVARDNTDNPDLSIVWIHPDDFPLLVAYWEKTFKIDLFKPQIGVVNVTDADSVWMEIPDDDDLPTAEELEDWIEDVLSGKINTEDDDNEEGDDGDDDEDDDDDDGNNSDEESNDDSDDDDE [chain 1 D288H], the dissociation constant (Kd) was around 3.3 µM.

As to chain 1 EEGLNFPTYDGKDQVVSLTEKNFKQVLKKYDVLCLYYHESVSSDKVAQKQFQLKEIVLELVAQVLEHKDIGFVMVDAKKEAKLAKKLGFDEEGSLYVLKGDRTIEFDGEFAADVLVEFLLDLIEDPVEIINSKLEVQAFERIEDQIKLIGFFKSEESEYYKAFEEAAEHFQPYIKFFATFDKGVAKKLSLKMNEVDFYEPFMDEPIAIPDKPYTEEELVEFVKEHQRPTLRRLRPEDMFETWEDDLNGIHIVAFAERSDPDGYEFLEILKQVARDNTDNPDLSIVWIDPDDFPLLVAYWEKTFKIDLFKPQIGVVNVTDADSVWMEIPDDDDLPTAEELEDWIEDVLSGKINTEDDDNEEGDDGDDDEDDDDDDGNNSDEESNDDSDDDDE [chain 1 R14Q], the equilibrium dissociation constant (Kd) is around 5.9 µM.

Take chain 1 EEGLNFPTYDGKDRVVSLTEKNFKQVLKKYDVLCLYYHESVSSDKVAQKQFQLKEIVLELVAQVLEHKDIGFVMVDAKKEAKLAKKLGFDEEGSLYVLKGDRTIEFDGEFAADVLVEFLLDLIEDPVEIINSKLEVQAFERIEDQIKLIGFFKSEESEYYKAFEEAAEHFQPYIKFFATFDKGVAKKLSLKMNEVDFYEPFMDEPIAIPDKPYTEEELVEFVKEHQRPTLRRLRPEDMFETWEDDLNGIHIVAFAERSDPDGYEFLEILKQVARDNTDNPDLSIVWIDPDDFPLLVAYWEKTFKIDLFKPQIRVVNVTDADSVWMEIPDDDDLPTAEELEDWIEDVLSGKINTEDDDNEEGDDGDDDEDDDDDDGNNSDEESNDDSDDDDE [chain 1 G313R]: the Kd is around 4.3 µM.

On to chain 1 EEGLNFPTYDGKDRVVSLTEKNFKQVLKKYDVLCLYYHESVSSDKVAQKQFQLKEIVLELVAQVLEHKDIGFVMVDAKKEAKLAKKLGFDEEGSLYVLKGDRTIEFDGEFAADVLVEFLLDLIEDPVEIINSKLEVQAFERIEDQIKHIGFFKSEESEYYKAFEEAAEHFQPYIKFFATFDKGVAKKLSLKMNEVDFYEPFMDEPIAIPDKPYTEEELVEFVKEHQRPTLRRLRPEDMFETWEDDLNGIHIVAFAERSDPDGYEFLEILKQVARDNTDNPDLSIVWIDPDDFPLLVAYWEKTFKIDLFKPQIGVVNVTDADSVWMEIPDDDDLPTAEELEDWIEDVLSGKINTEDDDNEEGDDGDDDEDDDDDDGNNSDEESNDDSDDDDE [chain 1 L148H], for which the equilibrium dissociation constant (Kd) was around 2.8 µM.

Take chain 1 EEGLNFPTYDGKDRVVSLTEKNFKQVLKKYDVLCLYYHESVSSDKVAQKQFQLKEIVLELVAQVLEHKDIGFVMVDAKKEAKLAKKLGFDEEGSLYVLKGDRTIEFDGEFAADVLVEFLLDLIEDPVEIINSKLEVQAFERIEDQIKLIGFFKSEESEYYRAFEEAAEHFQPYIKFFATFDKGVAKKLSLKMNEVDFYEPFMDEPIAIPDKPYTEEELVEFVKEHQRPTLRRLRPEDMFETWEDDLNGIHIVAFAERSDPDGYEFLEILKQVARDNTDNPDLSIVWIDPDDFPLLVAYWEKTFKIDLFKPQIGVVNVTDADSVWMEIPDDDDLPTAEELEDWIEDVLSGKINTEDDDNEEGDDGDDDEDDDDDDGNNSDEESNDDSDDDDE [chain 1 K161R]: the dissociation constant (Kd) is around 1.4 µM.
